Residue numbers refer to the chain shown, from its start. Numbers in names are those of the source.
B1: Ube2T wildtype (enzyme, human, UniProt Q9NPD8 1-197, looked up)
chain: MQRASRLKRELHMLATEPPPGITCWQDKDQMDDLRAQILGGANTPYEKGVFKLEVIIPERYPFEPPQIRFLTPIYHPNIDSAGRICLDVLKLPPKGAWRPSLNIATVLTSIQLLMSEPNPDDPLMADISSEFKYNKPAFLKNARQWTEKHARQKQKADEEEMLDNLPEAGDSRVHNSTQKRKASQLVGIEKKFHPDV
B2: Ube2T loop2-loop7 hybrid mutant (D32A, D33A, L92A or DDL/AAA) (enzyme, human, UniProt Q9NPD8 1-197, looked up)
chain: B1 chain with D32A, D33A, L92A
B3: Ube2T backside β1 double mutant (T23R+W25Q or TW/RQ) (enzyme, human, UniProt Q9NPD8 1-197, looked up)
chain: B1 chain with T23R, W25Q
B4: Ube2T Glu54Arg (Ube2Tv1 variant with a permissive gate, E54R) (enzyme, human, UniProt Q9NPD8 1-197, looked up)
chain: B1 chain with E54R
B5: FANCL RING domain (FANCL^R, residues 289-375) (domain or fragment, human, UniProt Q9NW38 289-375, looked up)
chain: EIDFPARAILEKSDFTMDCGICYAYQLDGTIPDQVCDNSQCGQPFHQICLYEWLRGLLTSRQSFNIIFGECPYCSKPITLKMSGRKH

Experiments:
Assay in all cases: ITC
[1] = molecular target: T1, FANCL URD-RING fragment (FANCL^UR, residues 109-375) (human, UniProt Q9NW38 109-375)
T1 sequence (looked up): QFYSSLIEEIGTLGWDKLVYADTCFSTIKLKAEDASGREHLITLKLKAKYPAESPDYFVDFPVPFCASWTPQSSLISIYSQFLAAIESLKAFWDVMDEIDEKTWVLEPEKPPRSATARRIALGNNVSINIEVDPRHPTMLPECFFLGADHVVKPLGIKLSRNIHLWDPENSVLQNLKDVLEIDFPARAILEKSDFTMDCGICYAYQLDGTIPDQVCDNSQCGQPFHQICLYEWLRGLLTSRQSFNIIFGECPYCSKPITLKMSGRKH

[2] = molecular target: B1
[3] = molecular target: B3

Row | Binder | Kd [1] | dH [1] | other results
1 | B1 | ~119 nM | 6.46 kcal/mol | –
2 | B2 | ~119 nM | -1.65 kcal/mol | –
3 | B3 | 200 nM | – | –
4 | B4 | – | – | binding result [1]: binds
5 | B5 | – | – | Kd [2]: ~250 nM; binding result [3]: binds
